The text below walks through data of the DeepSol protein solubility set.

This series can be described thus: soluble on expression in E. coli; label from the status in PepcDB or PDB records.
Take “MSLEFLRDFGKTALIHQGNEISYAELLENIASFANLMDITPNERVGIVMENRPEWVYAFYGTWKKGGIVVPIDFMSTPQEIRYILEDAEPSIIFCSDETYPRVREASEDLKVEIVNVDNLVLPTPWEGIVRRDEDDVAVLPYTSGTTGNPKGVMLTFKNLMSNIRGVSEVGIAGKEDKTLAILPFHHMYPLMTTMLLPLYLGATVVFLDKLTPEDIIEKLQKYQITVLIGVPRLYQLFHRRIMEEINKNVLAKNLFKLMKKVKNQKIRKTVFKKVHDAFGGRIKYMVSGGAKLPLDIAQDLTTLGFTVIEGYGLTETSPIVSFNPPNRIKLGSVGVPIKGVEVMTTSEGEIIVRGDNVMKGYWKKPEETQKVIINGWFYTGDLGEIDEEGYIYITGRKKEIIVLGSGKNVFPEEIESKILAKAPYIKEVGVFEKDGKLLALIYPDFEKVKELGITNLEETIKWEVIDKVNRELPEWKRVVGFKIVKTELPKTRLGKLRRFLLPQIYEKAEEIKEEKTEDYSVFETEEGRIIKEFLEKISQKEVKPGDHLEIDLGLDSLAKVELLGFIETNFGVSLSEEELSKNLVVKDLIELVRSKKKSVDTKEVSWKDILTKAKPYELYHYPLIFELGRKLLKLYFKLYHRIDVRGLENLPKPPFIIAPNHQSYLDAFAIAAVLPKEIAHETYFLGDETYFRNPITSTFGKLAHVITVNVNKGLKESLQKTAYALMSGKVVVIFPEGARTRTEELMEFKKGVAILARELGVPIVPVAIEGAYEAWSVYDKFPKPKKIKIMFGKPVDPDEKSYEEITKELYEWIKSMLEFLKKESEGHHHHHH”: the “soluble on expression in E. coli” value was “soluble”. The same measure for “MGSDKIHHHHHHMTFEPYPFERLRALLKEITPKKRGLDLGIGEPQFETPKFIQDALKNHTHSLNIYPKSAFEESLRAAQRGFFKRRFKIELKENELISTLGSREVLFNFPSFVLFDYQNPTIAYPNPFYQIYEGAAKFIKAKSLLMPLTKENDFTPSLNEKELQEVDLVILNSPNNPTGRTLSLEELISWVKLALKHDFILINDECYSEIYENTPPPSLLEACMLAGNEAFKNVLVIHSLSKRSSAPGLRSGFIAGDSRLLEKYKAFRAYLGYTSANAIQKASEAAWLDDRHAEFFRNIYANNLKLARKIFKNTLIYPYSFYVYLPVQNGENFAKTLYQNEGIITLPALYLGRNRIGADYVRLALVYDTPLLEKPLEIIETYRENHA”: “not soluble”; for “MPRGHAGDFPPPALSVRNRPGNSGLVLETCFAQLRSGRKDHGARVRNMTAPRSIVIGGGAFAGLALALALRQGLGPEVPVIVADPALALRPSRDPRATAIVAACRRLFEALGVWDEVAPTAQPIIDMVVTDSHLEDATRPVFLTFAGEVQPGEPFAHMVENRYLVEALAKRAEAEGVELRATPVTSYDARTEAIGVTLGDGSVIDASLLVAADGAKSKLRQRAGIATYGWDYDQSGIVVTVEHERDHNGCAEEHFLPAGPFAILPLTGRRSSLVWSESRRDAERIVALPEKEFQRELEKRFGLRLGDIKPLDKPKSFPLGYFVAQSFIAPRLALIGDAAHVIHPIAGQGLNMGLRDVAALAEVVVDAARLGIDPGQVDVLERYQRWRRFDTVAMGVATNGLNFLFSNNSPLLRGIRDIGLGLVDRLPPLKGAFIRQAAGLTGEIPRLLKGEALLEHHHHHH”: “soluble”; for “MSAYKQANRLIHEKSPYLLQHAYNPVDWYPWCDEAFEKAKRENKPIFLSIGYSTCHWCHVMESESFEDEEVAEILNKNFVSIKVDREERPDIDSIYMTACQALTGHGGWPLTIIMTPDKKPFFAGTYFPKKDRMGMPGLISILKSVHNTWVNEKDSLAKYSSKVVSVISESIDDDYYYSVDEITEDIFEDAFSQFKYDFDNIYGGFGNAPKFPMPHNLYFLLRYWHKAKEEYALVMVEKTLDSMYSGGIYDHIGFGFCRYSTDEKWLVPHFEKMLYDNALLAIAYLETYQATKNKKYADIAKEIFTYVLRDMTSPEGGFYSAEDADSEGEEGKFYIWSPTEIKEVLGESDGEKFCKYYNITEEGNFEGLNIPNLINSTIPDEDKEFVELCRKKLFDHREKRVHPHKDDKILTAWNGLMIAALAIGGRVLGIEKYTLAAEKASEFIFSKLVRPDGRLLARYRDGEAAFLAYLDDYAFLIWALIELYETTYKPMYLKKAMELTNDMIKYFWDNKKGGLFIYGSDSEQLITRPKEIYDGAIPSGNSVAALNFLRLSRLTGQQELEEKAHQMFALFGSKIDSMPQGYAFFLTAMLFSKSKSNEVVLVGSNEKDTQNMLSILSEDFRPFTTSILYSEEHKDLKELIPFIDNYTTIENKPTAYVCENFVCHEPITDGALLREKLNR”: “soluble”. The same measure for “MGHHHHHHSHMFGGDTLYELRCSLQLAETEREGGFSPHISPFTAVNDLGHLLGRAGFNTLTVDTDEIQVNYPGMFELMEDLQGMGESNCAWNRKALLHRDTMLAAAAVYREMYRNEDGSVPATYQIYYMIGWKYHESQARPAERGSATVSFGELGKINNLMPPGKKSQ”: “not soluble”.
